Results taken from paper doi:10.1101/2022.09.30.510402.

Molecular target: modified αM subunit in which the αMI-domain was deleted (I-less form of Mac-1) (human) (UniProt P11215)
Experiment: co-IP

Chain of CD47 (Q08722 19-323): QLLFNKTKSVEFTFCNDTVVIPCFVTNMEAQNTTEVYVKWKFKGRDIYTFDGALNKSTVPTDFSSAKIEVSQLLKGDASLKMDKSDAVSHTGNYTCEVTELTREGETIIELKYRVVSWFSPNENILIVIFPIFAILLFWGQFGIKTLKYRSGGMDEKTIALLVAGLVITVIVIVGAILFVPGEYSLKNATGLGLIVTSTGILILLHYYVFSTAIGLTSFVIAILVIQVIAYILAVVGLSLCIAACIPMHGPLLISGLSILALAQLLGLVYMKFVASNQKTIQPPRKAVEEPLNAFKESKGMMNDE

## CD47 (from UniProt Q08722 19-323) (natural protein)
  fold more CD47 bound than by the whole integrin: 1.5
